Data from PMC5432616, “Oligomeric State and Thermal Stability of Apo- and Holo- Human Ornithine δ-Aminotransferase” (The Protein Journal, 2017).

Tests used:
purified protein [1] = substrate: O=C(O)CCC(=O)C(=O)O; test: purified protein; type: biochemical, Homo sapiens; conditions: co-substrate L-Orn, 60 nM enzyme, 50 mM Hepes, pH 8.0, 150 mM NaCl, 100 μM PLP, 25 °C
purified protein [2] = substrate: NCCC[C@H](N)C(=O)O; test: purified protein; conditions: co-substrate α-KG, 60 nM enzyme, 50 mM Hepes, pH 8.0, 150 mM NaCl, 100 μM PLP, 25 °C

B1: hOAT (human ornithine δ-aminotransferase) (Homo sapiens; R217A) (protein)
chain: TSVATKKTVQGPPTSDDIFEREYKYGAHNYHPLPVALERGKGIYLWDVEGRKYFDFLSSYSAVNQGHCHPKIVNALKSQVDKLTLTSRAFYNNVLGEYEEYITKLFNYHKVLPMNTGVEAGETACKLARKWGYTVKGIQKYKAKIVFAAGNFWGRTLSAISSSTDPTSYDGFGPFMPGFDIIPYNDLPALEAALQDPNVAAFMVEPIQGEAGVVVPDPGYLMGVRELCTRHQVLFIADEIQTGLARTGRWLAVDYENVRPDIVLLGKALSGGLYPVSAVLCDDDIMLTIKPGEHGSTYGGNPLGCRVAIAALEVLEEENLAENADKLGIILRNELMKLPSDVVTAVRGKGLLNAIVIKETKDWDAWKVCLRLRDNGLLAKPTHGDIIRFAPPLVIKEDELRESIEIINKTILSF
notes: untagged, pET43a, E. coli BL21(DE3)pLysS; DEAE and Superdex 200; tetramer in equilibrium with dimer, dimer is the functional unit
Q: For B1, which Km (purified protein [1]) is on record?
A: 2.4 ± 0.1 mM

Q: And the kcat (purified protein [1])?
A: 38.1 ± 0.3 s⁻¹

Q: What about the Km (purified protein [2]) of the same protein?
A: 5.1 ± 0.3 mM

Q: And the kcat (purified protein [2])?
A: 38.4 ± 0.7 s⁻¹
